Experimental data: article PMC12098869, “An mRNA-display derived cyclic peptide scaffold reveals the substrate binding interactions of an N-terminal cysteine oxidase” (Nature Communications, 2025)
Positions count from the first letter of the chain named. Several values for one entry are separate records, joined by “and”; a condition that tells them apart may be missing. Equal values may be shown once.

Assays:
Assay in all cases: SPR; biotinylated ADO or ADO mutant immobilised on a Biotin CAP chip (~2500-3000 RU), substrate peptide injected; Biacore T200, 4 °C; 20 mM HEPES pH 7.5, 500 mM NaCl, 10 mM DTT, 0.1% tween-20; 50 µL/minute; multi-cycle or single-cycle mode not given; each cell is one of three independent measurements
Settings in all cases: both partners purified
[1] = biological target: T1, ADO-D206E, N-terminally His-tagged and biotinylated (human, UniProt Q96SZ5 1-270, D206E, biotin (biotinylated during expression))
T1 construct: 2-aminoethanethiol dioxygenase (ADO), human, UniProt Q96SZ5, full length, site-directed mutant; source: E. coli Rosetta2(DE3), purified (Ni-NTA, SEC); not shown: biotinylation tag (from the vector pQE80L-Navi), N-terminal, kept
T1 sequence (looked up): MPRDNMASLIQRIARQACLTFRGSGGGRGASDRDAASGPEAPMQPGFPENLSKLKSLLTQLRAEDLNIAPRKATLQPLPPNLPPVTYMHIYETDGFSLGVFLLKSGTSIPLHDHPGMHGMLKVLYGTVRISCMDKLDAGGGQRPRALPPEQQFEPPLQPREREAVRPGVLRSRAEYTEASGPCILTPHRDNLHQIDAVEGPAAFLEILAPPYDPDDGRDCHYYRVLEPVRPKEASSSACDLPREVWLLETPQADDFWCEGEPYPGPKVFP

[2] = biological target: T2, ADO-I109A, N-terminally His-tagged and biotinylated (human, UniProt Q96SZ5 1-270, I109A, biotin (biotinylated during expression))
T2 construct: 2-aminoethanethiol dioxygenase (ADO), human, UniProt Q96SZ5, full length, site-directed mutant; source: E. coli Rosetta2(DE3), purified (Ni-NTA, SEC); not shown: biotinylation tag (from the vector pQE80L-Navi), N-terminal, kept
T2 sequence (looked up): T1 sequence (looked up) with I109A, E206D

[3] = biological target: T3, ADO-C220A, N-terminally His-tagged and biotinylated (human, UniProt Q96SZ5 1-270, C220A, biotin (biotinylated during expression))
T3 construct: 2-aminoethanethiol dioxygenase (ADO), human, UniProt Q96SZ5, full length, site-directed mutant; source: E. coli Rosetta2(DE3), purified (Ni-NTA, SEC); not shown: biotinylation tag (from the vector pQE80L-Navi), N-terminal, kept
T3 sequence (looked up): T1 sequence (looked up) with E206D, C220A

[4] = biological target: T4, ADO-F256A, N-terminally His-tagged and biotinylated (human, UniProt Q96SZ5 1-270, F256A, biotin (biotinylated during expression))
T4 construct: 2-aminoethanethiol dioxygenase (ADO), human, UniProt Q96SZ5, full length, site-directed mutant; source: E. coli Rosetta2(DE3), purified (Ni-NTA, SEC); not shown: biotinylation tag (from the vector pQE80L-Navi), N-terminal, kept
T4 sequence (looked up): T1 sequence (looked up) with E206D, F256A

[5] = biological target: T5, ADO-F101A, N-terminally His-tagged and biotinylated (human, UniProt Q96SZ5 1-270, F101A, biotin (biotinylated during expression))
T5 construct: 2-aminoethanethiol dioxygenase (ADO), human, UniProt Q96SZ5, full length, site-directed mutant; source: E. coli Rosetta2(DE3), purified (Ni-NTA, SEC); not shown: biotinylation tag (from the vector pQE80L-Navi), N-terminal, kept
T5 sequence (looked up): T1 sequence (looked up) with F101A, E206D

- Kd [1]: 1210 nM and 1270 nM and 1440 nM
- Kd [2]: 14200 nM and 15100 nM and 18400 nM
- Kd [3]: 1440 nM and 1180 nM and 1430 nM
- Kd [4]: 751 nM and 900 nM and 973 nM
- Kd [5]: 37900 nM and 35000 nM and 37600 nM
B1: IL32(2-15), synthetic peptide corresponding to the methionine excised N-terminus of IL32, residues 2-15 (peptide, UniProt P24001 2-15, looked up)
peptide: CFPKVLSDDMKKLK
notes: interleukin 32 (IL32), residues 2-15 (N-terminal Cys exposed); also called 14-mer IL32; source: synthetic peptide
